Measurements taken from the supplement of paper PMC10065799, “High-throughput profiling of sequence recognition by tyrosine kinases and SH2 domains using bacterial peptide display” (eLife, 2023).

Assays:
[1] = target: Grb2 SH2 (UniProt P62993); assay: SH2 binding enrichment of the phosphorylated peptide, bacterial display (enrichment ratio); higher = better substrate or ligand; peptides without Tyr show the background
[2] = target: c-Src SH2; assay: as above
[3] = target: SHP2-C SH2; assay: as above
[4] = test system: AncSZ; assay: phosphorylation enrichment, bacterial display (enrichment ratio); higher = better substrate or ligand; peptides without Tyr show the background
[5] = target: Jak2 (UniProt O60674); assay: as above
[6] = target: EPHB1 (UniProt P54762); assay: as above
[7] = target: Fes (UniProt P07332); assay: as above
[8] = target: FGFR3 (UniProt P22607); assay: as above
[9] = test system: Fer (mouse); assay: as above
[10] = target: FGFR1 (UniProt P11362); assay: as above
[11] = target: Fyn (UniProt P06241); assay: as above
[12] = test system: c-Abl (mouse); assay: as above
[13] = test system: c-Src; assay: as above
[14] = target: EPHB2 (UniProt P29323); assay: as above
[15] = target: Hck (UniProt P08631); assay: as above
[16] = target: MERTK (UniProt Q12866); assay: as above
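Wherever SH2 binding enrichment of the phosphorylated peptide, bacterial display is given: peptide library displayed on the E. coli surface as eCPX fusions, selected cells deep-sequenced, score is each peptide's frequency after selection divided by its frequency in the input.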
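Wherever phosphorylation enrichment, bacterial display is given: 11-residue human phosphosite peptides and single-mutation variants displayed on the E. coli surface, counted by deep sequencing, each peptide's frequency after selection divided by its frequency in the unselected input library; frequency after pTyr selection over input frequency; kinase dosed for 20-30% of maximal phosphorylation in three min.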

FGFR3, sequence (P22607 whole entry, looked up): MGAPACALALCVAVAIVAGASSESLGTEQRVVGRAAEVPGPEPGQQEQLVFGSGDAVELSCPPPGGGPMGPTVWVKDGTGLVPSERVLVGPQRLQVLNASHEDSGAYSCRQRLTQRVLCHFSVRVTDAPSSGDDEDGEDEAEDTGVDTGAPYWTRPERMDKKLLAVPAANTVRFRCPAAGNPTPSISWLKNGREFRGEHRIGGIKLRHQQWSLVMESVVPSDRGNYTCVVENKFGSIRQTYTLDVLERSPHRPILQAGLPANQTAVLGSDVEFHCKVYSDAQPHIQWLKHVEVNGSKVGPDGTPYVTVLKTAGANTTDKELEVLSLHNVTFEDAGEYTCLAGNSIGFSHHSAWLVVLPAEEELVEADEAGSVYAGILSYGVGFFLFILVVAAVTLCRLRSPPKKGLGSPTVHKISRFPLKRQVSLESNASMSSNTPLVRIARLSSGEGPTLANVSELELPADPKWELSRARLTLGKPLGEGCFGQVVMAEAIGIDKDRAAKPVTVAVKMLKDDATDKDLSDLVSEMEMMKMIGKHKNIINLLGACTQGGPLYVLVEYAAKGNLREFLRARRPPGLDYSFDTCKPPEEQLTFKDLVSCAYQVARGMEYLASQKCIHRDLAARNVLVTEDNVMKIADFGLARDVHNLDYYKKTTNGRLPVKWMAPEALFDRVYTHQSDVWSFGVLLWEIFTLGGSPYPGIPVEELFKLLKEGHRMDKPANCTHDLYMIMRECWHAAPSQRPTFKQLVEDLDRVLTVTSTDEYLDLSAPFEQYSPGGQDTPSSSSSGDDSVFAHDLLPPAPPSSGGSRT
FGFR1, sequence (P11362 whole entry, looked up): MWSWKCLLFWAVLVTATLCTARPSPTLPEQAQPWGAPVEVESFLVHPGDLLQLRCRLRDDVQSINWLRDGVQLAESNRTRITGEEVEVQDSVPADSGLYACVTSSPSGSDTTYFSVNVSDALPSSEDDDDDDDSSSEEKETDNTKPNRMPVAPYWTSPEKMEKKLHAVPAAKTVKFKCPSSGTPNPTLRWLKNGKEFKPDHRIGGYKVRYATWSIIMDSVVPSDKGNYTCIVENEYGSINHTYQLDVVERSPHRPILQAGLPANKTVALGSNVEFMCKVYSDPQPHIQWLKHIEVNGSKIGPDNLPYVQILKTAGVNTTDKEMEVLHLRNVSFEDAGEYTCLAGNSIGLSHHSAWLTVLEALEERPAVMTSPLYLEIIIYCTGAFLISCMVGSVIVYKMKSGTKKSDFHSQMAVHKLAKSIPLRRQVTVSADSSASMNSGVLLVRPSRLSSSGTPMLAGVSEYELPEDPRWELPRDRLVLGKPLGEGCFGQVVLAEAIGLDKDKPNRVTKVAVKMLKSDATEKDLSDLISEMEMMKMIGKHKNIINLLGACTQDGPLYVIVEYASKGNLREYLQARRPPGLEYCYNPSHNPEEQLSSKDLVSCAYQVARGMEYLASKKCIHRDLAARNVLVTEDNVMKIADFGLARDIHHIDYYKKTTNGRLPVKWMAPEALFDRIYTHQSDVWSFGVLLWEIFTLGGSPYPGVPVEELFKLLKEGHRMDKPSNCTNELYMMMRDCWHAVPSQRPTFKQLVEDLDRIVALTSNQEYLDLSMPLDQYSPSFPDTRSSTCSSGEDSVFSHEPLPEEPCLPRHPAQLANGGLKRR
EPHB1, sequence (P54762 whole entry, looked up): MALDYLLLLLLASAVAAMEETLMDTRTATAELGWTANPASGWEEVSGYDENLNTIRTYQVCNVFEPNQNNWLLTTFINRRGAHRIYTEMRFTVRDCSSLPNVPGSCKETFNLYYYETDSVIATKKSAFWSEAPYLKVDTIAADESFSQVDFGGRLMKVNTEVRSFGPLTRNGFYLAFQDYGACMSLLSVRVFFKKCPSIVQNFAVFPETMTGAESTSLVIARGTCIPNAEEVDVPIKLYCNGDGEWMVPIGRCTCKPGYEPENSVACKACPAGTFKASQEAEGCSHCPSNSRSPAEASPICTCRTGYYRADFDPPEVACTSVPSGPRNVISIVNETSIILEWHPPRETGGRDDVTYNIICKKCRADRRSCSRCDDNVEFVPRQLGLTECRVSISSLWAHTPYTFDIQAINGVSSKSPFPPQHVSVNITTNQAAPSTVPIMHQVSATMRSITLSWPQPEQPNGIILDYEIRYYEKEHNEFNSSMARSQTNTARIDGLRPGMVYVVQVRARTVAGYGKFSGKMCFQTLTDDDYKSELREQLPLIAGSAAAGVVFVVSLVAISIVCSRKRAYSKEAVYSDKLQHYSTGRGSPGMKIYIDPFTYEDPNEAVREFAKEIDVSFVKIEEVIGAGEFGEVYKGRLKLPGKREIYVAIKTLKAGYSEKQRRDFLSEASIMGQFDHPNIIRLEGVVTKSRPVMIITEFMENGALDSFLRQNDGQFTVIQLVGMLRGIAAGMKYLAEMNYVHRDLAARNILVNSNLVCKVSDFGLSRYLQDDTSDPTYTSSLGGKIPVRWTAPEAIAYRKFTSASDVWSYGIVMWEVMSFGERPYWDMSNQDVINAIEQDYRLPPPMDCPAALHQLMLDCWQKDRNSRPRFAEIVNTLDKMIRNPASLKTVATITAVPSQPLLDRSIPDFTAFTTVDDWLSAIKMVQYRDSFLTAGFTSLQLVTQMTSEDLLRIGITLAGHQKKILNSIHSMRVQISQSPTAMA
Jak2, sequence (O60674 whole entry, looked up): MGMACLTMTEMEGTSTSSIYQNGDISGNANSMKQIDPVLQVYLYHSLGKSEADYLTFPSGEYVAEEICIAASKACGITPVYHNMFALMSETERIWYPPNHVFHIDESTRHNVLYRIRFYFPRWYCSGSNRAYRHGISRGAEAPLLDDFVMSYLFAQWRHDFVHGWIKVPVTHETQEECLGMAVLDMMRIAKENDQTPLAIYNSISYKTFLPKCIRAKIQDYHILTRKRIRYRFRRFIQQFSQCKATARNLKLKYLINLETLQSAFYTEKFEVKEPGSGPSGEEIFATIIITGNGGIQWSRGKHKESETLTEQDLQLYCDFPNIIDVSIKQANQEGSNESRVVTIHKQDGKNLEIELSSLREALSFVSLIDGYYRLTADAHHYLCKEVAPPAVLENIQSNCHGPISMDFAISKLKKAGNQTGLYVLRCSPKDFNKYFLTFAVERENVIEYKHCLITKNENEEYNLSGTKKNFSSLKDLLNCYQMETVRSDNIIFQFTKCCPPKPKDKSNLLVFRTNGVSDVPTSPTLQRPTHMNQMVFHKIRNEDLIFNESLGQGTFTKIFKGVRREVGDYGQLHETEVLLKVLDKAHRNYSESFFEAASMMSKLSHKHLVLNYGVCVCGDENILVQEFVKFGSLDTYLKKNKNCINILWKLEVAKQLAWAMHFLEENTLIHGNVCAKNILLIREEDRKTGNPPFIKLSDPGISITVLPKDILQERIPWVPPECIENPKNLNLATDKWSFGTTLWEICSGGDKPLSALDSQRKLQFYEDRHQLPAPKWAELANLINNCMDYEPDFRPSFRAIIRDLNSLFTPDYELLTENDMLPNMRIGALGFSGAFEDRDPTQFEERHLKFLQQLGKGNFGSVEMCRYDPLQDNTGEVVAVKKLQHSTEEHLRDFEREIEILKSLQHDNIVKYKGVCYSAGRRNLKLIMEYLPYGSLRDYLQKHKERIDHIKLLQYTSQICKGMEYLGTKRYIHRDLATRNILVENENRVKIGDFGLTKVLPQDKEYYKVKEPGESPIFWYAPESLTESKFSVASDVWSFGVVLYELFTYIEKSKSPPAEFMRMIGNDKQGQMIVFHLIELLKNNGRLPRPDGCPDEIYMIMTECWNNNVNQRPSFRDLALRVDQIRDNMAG
EPHB2, sequence (P29323 whole entry, looked up): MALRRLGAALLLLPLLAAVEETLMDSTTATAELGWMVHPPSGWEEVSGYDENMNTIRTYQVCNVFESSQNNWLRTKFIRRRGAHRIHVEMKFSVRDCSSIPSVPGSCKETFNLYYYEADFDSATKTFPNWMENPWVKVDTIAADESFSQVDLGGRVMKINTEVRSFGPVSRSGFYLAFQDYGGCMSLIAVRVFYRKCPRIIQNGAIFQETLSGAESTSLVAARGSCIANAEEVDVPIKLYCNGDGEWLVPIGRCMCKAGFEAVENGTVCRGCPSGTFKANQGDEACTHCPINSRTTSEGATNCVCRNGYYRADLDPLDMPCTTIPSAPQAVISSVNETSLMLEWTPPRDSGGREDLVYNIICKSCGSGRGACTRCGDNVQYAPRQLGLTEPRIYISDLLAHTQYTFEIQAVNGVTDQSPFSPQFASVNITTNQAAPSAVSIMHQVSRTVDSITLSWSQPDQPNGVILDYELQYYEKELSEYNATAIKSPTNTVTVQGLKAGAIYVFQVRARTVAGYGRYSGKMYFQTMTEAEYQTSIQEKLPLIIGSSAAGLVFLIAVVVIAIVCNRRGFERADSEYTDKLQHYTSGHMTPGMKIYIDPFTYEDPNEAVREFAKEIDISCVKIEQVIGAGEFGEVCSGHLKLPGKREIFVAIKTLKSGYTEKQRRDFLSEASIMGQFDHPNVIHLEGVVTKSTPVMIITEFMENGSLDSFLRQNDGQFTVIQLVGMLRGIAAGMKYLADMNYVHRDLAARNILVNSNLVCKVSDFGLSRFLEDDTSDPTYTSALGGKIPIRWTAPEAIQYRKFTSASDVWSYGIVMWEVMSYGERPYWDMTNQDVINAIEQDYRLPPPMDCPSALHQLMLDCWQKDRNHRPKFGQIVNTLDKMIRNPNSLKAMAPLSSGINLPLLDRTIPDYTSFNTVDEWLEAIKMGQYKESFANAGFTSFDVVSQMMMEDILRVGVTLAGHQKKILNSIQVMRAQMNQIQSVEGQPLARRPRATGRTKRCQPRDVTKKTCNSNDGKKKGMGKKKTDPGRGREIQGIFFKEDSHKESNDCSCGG

Sequence	SH2 binding enrichment [1]	SH2 binding enrichment [2]	SH2 binding enrichment [3]	phosphorylation enrichment [4]	phosphorylation enrichment [5]	phosphorylation enrichment [6]	phosphorylation enrichment [7]	phosphorylation enrichment [8]	phosphorylation enrichment [9]	phosphorylation enrichment [10]	phosphorylation enrichment [11]	phosphorylation enrichment [12]	phosphorylation enrichment [13]	phosphorylation enrichment [14]	phosphorylation enrichment [15]	phosphorylation enrichment [16]
SLEKSYELLDG [ACTB_Y240_P243L]	1.01	4.69	0.729	1.16	1.25	0.575	1.16	0.963	0.705	0.508	0.533	0.956	0.52	0.584	0.595	0.555
SLIDGYYRLTA [JAK2_Y372]	0.986	2.57	6.44	0.92	7.08	0.457	0.926	1.69	0.427	2.49	0.467	0.522	0.451	0.495	0.475	0.436
SLLLSYFLIKW [NUP160_Y773_P768S_YF]	1.3	1.15	0.978	1.56	1.51	0.691	1.46	1.08	0.719	0.732	0.589	1.05	0.512	0.788	0.654	0.514
SMGHRYIEVFK [HNRNPF_Y82]	1.03	2.08	0.988	0.744	1.05	0.398	1	0.483	0.438	0.408	0.354	0.757	0.445	0.38	0.407	0.361
SNKLHYQLEQE [PDPR_Y110_Y109H]	1.01	0.72	0.783	0.917	0.699	0.504	1	0.673	0.498	0.496	0.519	0.647	0.443	0.505	0.535	0.442
SPPEVYAIMRG [NTRK1_Y757_C752S]	0.711	0.611	1.16	0.99	0.718	1.12	0.808	0.524	0.525	0.506	1.63	0.609	2.64	0.641	2.91	1.82
SQQTYYPVSNM [ABCD1_Y181_R182P]	0.864	0.532	0.534	1.32	9.57	5.58	0.68	10.5	0.946	13.5	3.77	2.44	5.27	4.24	6.81	10.5
SRDTRYLVLAV [AMH_Y195]	1.13	0.811	2.34	0.93	0.909	0.636	1.1	0.683	0.552	0.543	0.492	0.739	0.514	0.559	0.476	0.487
SSAAGYACLAF [MVD_Y131_YF]	0.732	1.55	10	0.948	0.919	0.536	1.07	0.763	0.493	0.446	0.428	0.946	0.494	0.455	0.585	0.538
SSEFHCVGGFF [CTSC_Y347_Y347C_YF]	0.883	0.373	0.64	0.997	0.858	0.564	1.05	0.619	0.521	0.466	0.44	0.735	0.458	0.5	0.499	0.412
SSENPCATIKD [MEGF10_Y1030_Y1030C]	0.795	0.541	0.806	0.812	0.66	0.43	0.823	0.602	0.445	0.554	0.468	0.509	0.465	0.494	0.492	0.438
SSFDTYHLSRE [KIR3DL2_Y253_I252T_YF]	0.764	0.701	0.824	0.756	0.7	0.528	0.842	0.595	0.539	0.615	4.75	0.613	3.31	0.616	3.51	0.613
SSRKEYFIGGG [GYPC_Y126]	0.703	0.63	0.677	0.482	0.519	0.423	0.673	0.478	0.431	0.532	0.603	0.429	0.496	0.317	0.486	0.309
SSVPDYLAAVD [GLB1_Y154_D151V]	0.774	0.523	0.816	1.63	1.11	0.631	1.19	1.17	0.568	0.534	0.582	0.801	0.381	0.683	0.517	0.463
SVETPYVSVTF [NDRG2_Y47_G48V]	0.632	0.485	0.827	1.26	1.1	0.632	1.19	0.936	1.56	0.897	0.784	0.844	2.05	0.629	0.662	0.47
SVGGCYEQLFV [MC4R_Y41_D37V]	0.862	0.76	0.633	1.51	1.14	1.02	1.42	0.972	7.02	0.791	0.982	1.22	1.24	0.661	1.46	0.826

Further lines, with some results ahead:

SH2 binding enrichment [1]	SH2 binding enrichment [2]	SH2 binding enrichment [3]	Sequence	phosphorylation enrichment [4]	phosphorylation enrichment [5]	phosphorylation enrichment [6]	phosphorylation enrichment [7]	phosphorylation enrichment [8]	phosphorylation enrichment [9]	phosphorylation enrichment [10]	phosphorylation enrichment [11]	phosphorylation enrichment [12]	phosphorylation enrichment [13]	phosphorylation enrichment [14]	phosphorylation enrichment [15]	phosphorylation enrichment [16]
0.764	0.482	0.607	SLESAYPEVSQ [TTF1_Y357_G360V]	0.951	1.09	0.514	0.941	0.611	0.4	0.507	0.447	1.55	0.523	0.792	0.858	0.471
0.927	0.929	0.806	SLIEHYEPSET [PLCD1_Y258_R257H]	1.05	0.983	0.541	0.977	0.704	0.525	0.586	0.513	0.624	0.446	0.548	0.535	0.422
0.906	0.549	0.786	SMEMKYLEEKN [ZAP70_Y451_G448E]	1.15	1.22	0.825	1.47	1.07	0.572	0.535	0.706	1.17	0.609	0.659	0.548	0.48
0.782	0.499	0.683	SPDMLYQFLKQ [RPAP3_Y567_YF]	0.997	0.679	0.943	0.971	1.35	7.72	1.7	0.792	0.695	1.77	0.749	7.82	4.98
0.725	0.546	0.531	SRLDSYVRSLP [TRAPPC1_Y133]	0.579	0.556	0.606	0.666	0.525	0.338	0.427	0.373	0.473	0.448	0.395	0.443	0.447
1	0.537	0.533	SSQILYKLEQS [THADA_Y701_V699I]	0.727	0.7	0.56	0.781	0.582	0.423	0.4	0.388	0.551	0.669	0.451	0.49	0.466
1.05	0.728	0.719	SVAVPYEPPEV [TP53_Y220_V217A]	1.31	1.1	0.614	1.31	0.944	0.529	0.595	0.486	0.823	0.551	0.626	0.565	0.493
0.786	0.608	0.626	SVMVPYEPPEV [TP53_Y220_V217M]	1.04	1.09	0.515	1.15	0.662	0.56	0.52	0.481	0.804	0.465	0.54	0.496	0.433
0.796	0.388	0.625	SVTCTGSPALN [TP53_Y126_Y126G]	0.792	0.741	0.539	0.972	0.511	0.423	0.422	0.422	0.612	0.387	0.487	0.459	0.385
1.24	1.19	1.35	SVTCTYCPALN [TP53_Y126_S127C]	0.84	0.629	0.38	0.779	0.46	0.394	0.564	0.545	0.683	0.581	0.413	0.495	0.611
0.962	0.611	0.612	SVVVLYEPPEV [TP53_Y220_P219L]	1.72	1.06	4.88	1.15	0.738	5.4	0.588	0.59	1.19	0.701	11	1.42	3.56
1.02	0.571	0.886	SVVVPCEPPEV [TP53_Y220_Y220C]	0.998	1.04	0.534	1.18	0.678	0.525	0.517	0.438	0.834	0.481	0.671	0.517	0.459
0.81	1.11	0.787	SVVVPYEPAEV [TP53_Y220_P223A]	1.09	1.1	0.704	1.18	0.719	0.596	0.566	0.433	0.708	0.539	0.689	0.498	0.488
